The values below come from PMC10365314, “Noncanonical contribution of microglial transcription factor NR4A1 to post-stroke recovery through TNF mRNA destabilization”.

This series addresses His-GST-NR4A1 (Mus musculus, UniProt P12813 1-601). Put plainly: EMSA; glutaraldehyde 0.2% added after binding; 10 mM HEPES pH 7.6, 50 mM KCl, 1 mM EDTA, 0.05% Triton X-100, 5% glycerol, 1 mM DTT, 40 U/ml RNasin; REMSA: 2 nM probe, room temperature 30 min; pull-down: 50 pmol probe, 250 ug extract, 4 C 3 h. The following applies: protein: recombinant; tags: His-GST; label: 5' biotin; single strand. A general note: Mobility shift assays separate free from complexed probe on a gel.

His-GST-NR4A1, sequence (P12813 whole entry): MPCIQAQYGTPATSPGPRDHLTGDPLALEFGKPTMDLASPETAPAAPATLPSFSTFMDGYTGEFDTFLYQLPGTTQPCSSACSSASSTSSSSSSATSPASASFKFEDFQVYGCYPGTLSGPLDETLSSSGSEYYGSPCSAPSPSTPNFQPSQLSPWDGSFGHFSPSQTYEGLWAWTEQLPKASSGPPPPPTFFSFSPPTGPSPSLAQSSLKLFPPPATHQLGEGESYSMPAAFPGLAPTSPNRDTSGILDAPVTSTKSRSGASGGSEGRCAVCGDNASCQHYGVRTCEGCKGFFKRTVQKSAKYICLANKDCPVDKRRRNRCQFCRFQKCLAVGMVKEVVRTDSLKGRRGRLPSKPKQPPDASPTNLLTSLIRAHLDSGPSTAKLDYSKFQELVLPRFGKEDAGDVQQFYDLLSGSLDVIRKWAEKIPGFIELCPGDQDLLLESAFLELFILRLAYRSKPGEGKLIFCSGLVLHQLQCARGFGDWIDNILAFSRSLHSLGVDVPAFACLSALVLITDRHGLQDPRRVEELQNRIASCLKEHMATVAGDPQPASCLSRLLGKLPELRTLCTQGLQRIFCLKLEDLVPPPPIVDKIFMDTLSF

As to CGUCUCGGACUCGGACUGCU (ssRNA, m6A at positions 9 and 15 (as printed: CGUCUCGG(m6A)CUCGG(m6A)CUGCU)) [GGACU probe, m6A], the binding result is recorded as “binds”.
